Measurements: article PMC6536502, “Structural insights into DNA recognition by AimR of the arbitrium communication system in the SPbeta phage” (Cell Discovery, 2019)
Changes are numbered by the printed parent chain.

Tests used:
Assay in all cases: EMSA; EMSA: 25 mM Tris-HCl pH 8.0, 150 mM NaCl, 5 mM MgCl2, 5 mM DTT, 0.1 mg/ml BSA, 10% glycerol, 50 ug/ml salmon sperm DNA, 4 C, 15 min; smFRET: 20 mM phosphate pH
Details in all cases: protein: recombinant; tags: 6xHis removed by drICE; chain copies: 2
[1] = molecular target: T1, AimR N46D (Bacillus phage SPbeta, UniProt O64094 1-386, N46D)
T1 sequence: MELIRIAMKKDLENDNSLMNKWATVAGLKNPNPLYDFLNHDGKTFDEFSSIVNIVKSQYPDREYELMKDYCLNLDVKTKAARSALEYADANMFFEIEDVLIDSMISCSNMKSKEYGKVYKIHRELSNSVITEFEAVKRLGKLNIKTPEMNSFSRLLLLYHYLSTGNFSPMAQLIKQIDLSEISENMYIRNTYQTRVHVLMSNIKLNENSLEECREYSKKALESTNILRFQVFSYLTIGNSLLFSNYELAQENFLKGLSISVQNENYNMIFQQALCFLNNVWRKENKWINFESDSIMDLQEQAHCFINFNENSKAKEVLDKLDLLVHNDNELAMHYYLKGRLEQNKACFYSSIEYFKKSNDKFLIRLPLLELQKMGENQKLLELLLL

[2] = molecular target: T2, AimR T78D (Bacillus phage SPbeta, UniProt O64094 1-386, T78D)
T2 sequence: T1 sequence with D46N, T78D

[3] = molecular target: T3, AimR N30A (Bacillus phage SPbeta, UniProt O64094 1-386, N30A)
T3 sequence: T1 sequence with N30A, D46N

[4] = molecular target: T4, AimR K77D (Bacillus phage SPbeta, UniProt O64094 1-386, K77D)
T4 sequence: T1 sequence with D46N, K77D

[5] = molecular target: T5, AimR K120D (Bacillus phage SPbeta, UniProt O64094 1-386, K120D)
T5 sequence: T1 sequence with D46N, K120D

Measured: binding result

B1: 31 bp aimX-upstream palindromic DNA (dsDNA)
DNA 1: ACTTAAATATTAGGTTTTAATAACATCTAGT
DNA 2: ACTAGATGTTATTAAAACCTAATATTTAAGT
binds: all assays above
